Laboratory results as given in the supplement of paper PMC9170038.

Tested on: MS2 coat protein
Assay: apparent KD of MS2 coat protein; designed switch direction (-1 OFF switch, 1 ON switch): -1; higher = weaker reporter binding
How it was run: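 The apparent KD reported per design is the median over clusters of curve fits to normalised cluster fluorescence. The RNA switches were transcribed on Illumina chips by stalled E. coli RNA polymerase. SNAP-549-labelled MS2 coat protein was titrated from 0.7 or 1.5 nM, doubling up to 3 µM, in Tris-HCl pH 7.5 buffer containing KCl, MgCl2, BSA, DTT, tRNA and Tween-20, with no input, 200 uM small-molecule ligand, or an oligonucleotide input.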

[1] = input ligand: microRNA oligo, concentration not stated
[2] = Eterna round: R95, input ligand: microRNA oligo, concentration not stated
[3] = Eterna round: R95, input ligand: FMN 200 uM
[4] = Eterna round: R95, input ligand: none

Row | Sequence | apparent KD of MS2 coat protein (input ligand: FMN 200 uM) | apparent KD of MS2 coat protein (input ligand: none) | other results
1 | AAUGAUUGACGAGGAUAUUGUGGUAAAACACGACGAGAAGGCGUAUGUCACAUGAGGAUCACCCAUGUGAGCUUUGUGGAUAUA [Ex NG1 #71] (Eterna round: R96, puzzle: Exclusion NG 1) | 0.0314 µM | 0.0355 µM | apparent KD of MS2 coat protein [1]: 0.0234 µM
2 | UCAUGGUAGCAGGAUAUGCUAUUUAUUUUUUAUGCAGAAGGGCUUACAUGAGGAUCACCCAUGUGUUAGGUUUA [JR_E6_Sub072] (puzzle: Exclusion 6) |  |  | apparent KD of MS2 coat protein [2]: 0.0813 µM
3 | GGGUGACAUGAGGAUCACCCAUGUCAGGAUAUGGGCUCGGGCUCGAAAGGGUCUGGGUCUAGAAGGGACUGCCC [-36.1, -35.1 kcal, 22%A (-3 GC series)] (Eterna round: R97, puzzle: Exclusion 1) | 0.137 µM | 0.067 µM | 
4 | AUAACGUAGCGAGGAUAUACGCGAGAUCGUUGCGUAGAAGGUGUAUCGUUGGACUUGAGGAUCACCCAAGUGAUGAGUCCUUCC [Mutated MS2 EX1.20] (Eterna round: R96, puzzle: Exclusion NG 1) | 0.0438 µM | 0.0407 µM | apparent KD of MS2 coat protein [1]: 0.0347 µM
5 | AGAAAUGCCCAUGGCCGCAAGCUUUUCGCUUGUCUUACCACAUGAGGAUCACCCAUGUGACAUGGGCUCCUUAUAAU [Usdigeor] (puzzle: Sensor v3, turn-off variant 2) |  |  | apparent KD of MS2 coat protein [3]: 0.0123 µM; apparent KD of MS2 coat protein [4]: 0.012 µM
6 | GUUAAACAUGAGGAUCACCCAUGUAAGGAUAUGCUGCGGUCGCGAUGACGUGACUGCAGCAGAAGGUACAAAUG [Mat - Mod of JL D58] (puzzle: Exclusion 1) |  |  | apparent KD of MS2 coat protein [2]: 0.0697 µM
7 | GUCCUCUUGACAUGAGGAUCACCCAUGUUUUAUUUGUUAACUGAGGAUAUACUCUUAUUUUUUAUGUAGAAGGCAGUUUUGUUC [JR_ExcNG3_Sub023] (Eterna round: R96, puzzle: Exclusion NG 3) | 0.0826 µM | 0.0263 µM | apparent KD of MS2 coat protein [1]: 0.022 µM
8 | GCGCACCUACCAAAAGGUAGGUCAACAUGAGGAUCACCCAUGUAGGAUAUCGAUUGCUUUGCAGUCGAGAAGGAUAUGAUGCGC [JL ENG3 3.80 Mod 12] (Eterna round: R96, puzzle: Exclusion NG 3) | 0.0272 µM | 0.024 µM | apparent KD of MS2 coat protein [1]: 0.0166 µM
9 | AGAUAUCUAGGAUAUGCGUCGCGGAGGACUCCGAAGGGAGGACAUGAGGAUCACCCAUGUAGAAGGAGACAUUG [Eternabot (L2) Solution 38] (Eterna round: R97, puzzle: Exclusion 2) | 0.046 µM | 0.045 µM | 
10 | GAAUAGCAAGCGAGAUCCCACAUGAGGAUCACCCAUGUGCUCGUCUUAUAAAGUACUGUGACGAAAGUCACGGUACA [Mat - Sensor, turn-off var - Eli Mod - D12] (Eterna round: R97, puzzle: Sensor, turn-off variant 1) | 0.0146 µM | 0.0178 µM | 
11 | AAGAACUAAGGAUAUACAUGAGGAUCACCCAUGUCUUUUACAUGUUACUGGCCCGCAUGUAGAAGGUAGAAAAG [Tianrasoed] (Eterna round: R96, puzzle: Exclusion 3) | 0.182 µM | 0.085 µM | apparent KD of MS2 coat protein [1]: 0.0744 µM
12 | GGAGAUCGAGGAUAUACAUGAGGAUCACCCAUGUCCGUAGACUGGGAUCGCGGCAGUGGUAGAAGGUGGAAAAU [Eternabot (L2) Solution 67] (Eterna round: R97, puzzle: Exclusion 3) | 0.112 µM | 0.16 µM | 
13 | GUAUAGUGAGUCAGGAUAUUAGAGGACCAGUUUCCUAAGAAGGGACAUGAGGAUCACCCAUGUGCAUAGGACGU [Eternabot (Original) Solution 20] (Eterna round: R97, puzzle: Brourd's mod of Exclusion 4) | 0.0207 µM | 0.023 µM | 
14 | CACUUACAUGAGGAUCACCCAUGUGAGGAUAUCGUGACCUGACGAGAAGUCAAUGUCACGAGAAGGCACGUGGG [Exclusion 1 (Mod 3 solution 97 by Eternabot)] (Eterna round: R97, puzzle: Exclusion 1) | 0.0119 µM | 0.0359 µM | 
15 | CGGUACUGAGGAUAUACAUGAGGAUCACCCAUGUGUUCCAGCUAGCGUACUGGCAUUUGUAGAAGGCGGUGCUG [JL-ex3-3.22 Brourd mod] (puzzle: Exclusion 3) |  |  | apparent KD of MS2 coat protein [2]: 0.016 µM
16 | GAGUACAGAGGAUAUACAUGAGGAUCACCCAUGUGUUUCAGCUAGGAGACUAGCGAAAGUAGAAGGCUGUACUG [salish99_ex3_r4_006] (Eterna round: R97, puzzle: Exclusion 3) | 0.0234 µM | 0.0103 µM | 
17 | GAAAACGAAGAGGAUAUUUGAUAUCAUAGCUUCAAAGAAGGCUUCACAUGAGGAUCACCCAUGUGAUCUUCAAU [Mat - Exclusion 6 - JL Mod - D19] (Eterna round: R97, puzzle: Exclusion 6) | 0.116 µM | 0.0238 µM | 

Row | Sequence | apparent KD of MS2 coat protein (input ligand: FMN 200 uM) | apparent KD of MS2 coat protein (input ligand: none) | other results
18 | GGGUGUCGAGUUAGGAUAUCGAUGCCGUAACGGCUCGAGAAGGGACUUGAGGAUCACCCAAGUCUGGUCGAGGC [Rierariis] (Eterna round: R97, puzzle: Brourd's mod of Exclusion 4) | 0.0234 µM | 0.0184 µM | 
19 | UGUACGAUGCGUGCUGACAUGCGUCGUGCAGCAGGUGGAACAUGAGGAUCACCCAUGUCCUCAUUUGCUCGUCUUAU [Mat - Sensor v3 - Turn-off var 2 - D21] (puzzle: Sensor v3, turn-off variant 2) |  |  | apparent KD of MS2 coat protein [3]: 0.0352 µM; apparent KD of MS2 coat protein [2]: 0.155 µM; apparent KD of MS2 coat protein [4]: 0.0346 µM
20 | AUAAAACAUGUAGGAUAUGCGUAGCGAAGCUAUGCAGAAGGACAUGAGGAUCACCCAUGUCUUUCCGUCUGCGAACAGACGGAA [Mat - Exclusion NG 1 - Mod of JL - D44] (Eterna round: R96, puzzle: Exclusion NG 1) | 0.0357 µM | 0.021 µM | apparent KD of MS2 coat protein [1]: 0.0138 µM
21 | AGAAAUCUGUAGGAUAUGUUGAACACCGUGUACACAGAAGGGCAGACAUGAGGAUCACCCAUGUGGUGGGCCAG [Eternabot (L1) Solution 91] (Eterna round: R97, puzzle: Exclusion 6) | 0.576 µM | 0.469 µM | 
22 | AUUUAACAUGAGGAUCACCCAUGUGAGGAUAUGUCCAUUUUAAACAAAUAGGAUAUGGACAGAAGGCACACCGG [JR_Exclusion1_Sub007] (puzzle: Exclusion 1) |  |  | apparent KD of MS2 coat protein [2]: 0.219 µM
23 | UAGGCGUAAGGAUAUAUCUUUGGACGAGCGAGGGACCAGAGAUAGAAGGUACAUGAGGAUCACCCAUGUGGGUC [Eternabot (L1) Solution 41] (Eterna round: R97, puzzle: Exclusion 4) | 0.189 µM | 0.0649 µM | 
24 | AAAAGGCAGGGAGGAUAUGCUUACCUGGGUCGUCUUCAGACAUGAGGAUCACCCAUGUAGUCGACGCAGAAGGCCCUCAAAGCC [Mat - Exclusion NG 2 - Mod of JL - D60] (Eterna round: R96, puzzle: Exclusion NG 2) | 0.0826 µM | 0.0541 µM | apparent KD of MS2 coat protein [1]: 0.0389 µM
25 | UGUUGUCGCGUAGGAUAUGGCCAACAGGCCGUAGGAUAUGGGAAACCAGAAGGACCGCCAACAGGCGAGAAGGACGGGACAACU [pwkr exNG2 2xF7 2xFMN.21] (Eterna round: R96, puzzle: Exclusion NG 2) | 0.127 µM | 0.072 µM | apparent KD of MS2 coat protein [1]: 0.0494 µM
26 | AUCGGGUCAGGAUAUCAUAGGAGCUGAUAUCCUCGGCUCGGUGAGAAGGGACUUGAGGAUCACCCAAGUAGGGC [Ririonte] (Eterna round: R97, puzzle: Exclusion 4) | 0.0444 µM | 0.0461 µM | 
27 | CGUCUGUAAGGAUAUGGUUGCAUCAACAUGAGGAUCACCCAUGUAACAUGGGACUAGUGAUUAGAAGGUACGAACG [EX5 #58] (Eterna round: R97, puzzle: Exclusion 5) | 0.156 µM | 0.142 µM | 
28 | AGAUCCACCGAGGAUAUUGGAGUGAUAUCACUCUAAGAAGGCGGUACAUGAGGAUCACCCAUGUGAUACCCAGA [Eternabot (Original) Solution 15] (Eterna round: R97, puzzle: Exclusion 6) | 0.551 µM | 0.316 µM | 
29 | AAUUCACAUGAGGAUCACCCAUGUCAGGAUAUGGUUUCACGUUUUUCUUUUCUUGAGGCCAGAAGGGACAGCUA (puzzle: Exclusion 1) |  |  | apparent KD of MS2 coat protein [2]: 0.0601 µM
30 | UAAUUAGCAAGUAGAUCCGACAUGAGGAUCACCCAUGUUAUCUGAAAGAACGCAGAAUAAUUGUGAGCUCGUCUAAA [Sensor-V1 #2] (Eterna round: R97, puzzle: Sensor, turn-off variant 1) | 0.144 µM | 0.154 µM | 
31 | GCCCUUAUUGUUAGGAUAUAACGGAAAUACAACCGUUAGAAGGAACAUGAGGAUCACCCAUGUGCCAUACAGCC [Eternabot (Original) Solution 39] (Eterna round: R97, puzzle: Brourd's mod of Exclusion 4) | 0.119 µM | 0.0295 µM | 
32 | UACAUGAGGAUCACCCAUGUUUUGUCGUGUAUGGUAUUUAUCUAGGAUAUCAUUUUAGUUAGUUAUGAGAAGGAGAAUAUUAAU [JMF's solution 88] (Eterna round: R96, puzzle: Exclusion NG 3) |  |  | apparent KD of MS2 coat protein [1]: 0.0264 µM
33 | CCAUCACAUGAGGAUCACCCAUGUCAGGAUAUCUCAGUGCAUCCACACGGACGCAUCAAGAGAAGGGACAAAAC [Vinxlusion 4 - Jieux - Exclusion 1] (Eterna round: R97, puzzle: Exclusion 1) | 0.0359 µM | 0.0348 µM | 
34 | CAGUACUGAGGAUAUACAUGAGGAUCACCCAUGUGUGAGAUACUAGUGAGGUCGAUUAGUAGAAGGCAGUACUG [Mat X3R4 m25] (Eterna round: R97, puzzle: Exclusion 3) | 0.957 µM | 0.0263 µM | 
